Patent US20240117030A1 (Pfizer, published 2024)
Where a chain is given by its changes, count along the chain named. Where two headings read alike, the source gives them in different places.

Experiments:
recombinant human IL-12 [1] = target: T1, recombinant human IL-12 (human, UniProt P29459 23-219; P29460 23-328); test: cell-based or functional assay
T1 sequence (looked up) 1: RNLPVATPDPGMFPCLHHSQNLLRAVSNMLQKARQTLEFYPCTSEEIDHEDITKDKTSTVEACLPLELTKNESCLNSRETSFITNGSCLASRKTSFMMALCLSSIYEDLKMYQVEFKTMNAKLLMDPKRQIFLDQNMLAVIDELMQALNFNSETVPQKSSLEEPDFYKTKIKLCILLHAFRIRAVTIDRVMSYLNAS
T1 sequence (looked up) 2: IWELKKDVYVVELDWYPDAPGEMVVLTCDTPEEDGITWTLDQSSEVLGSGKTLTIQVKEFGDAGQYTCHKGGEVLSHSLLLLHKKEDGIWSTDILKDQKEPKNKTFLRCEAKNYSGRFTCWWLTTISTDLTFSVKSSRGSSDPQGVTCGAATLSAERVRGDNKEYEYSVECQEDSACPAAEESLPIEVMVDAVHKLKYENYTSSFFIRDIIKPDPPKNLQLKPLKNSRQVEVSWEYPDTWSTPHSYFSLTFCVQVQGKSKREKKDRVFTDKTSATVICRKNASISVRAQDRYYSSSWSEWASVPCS

recombinant human IL-23 [2] = target: T2, recombinant human IL-23 (human, UniProt Q9NPF7 20-189; P29460 23-328); test: cell-based or functional assay
T2 sequence (looked up) 1: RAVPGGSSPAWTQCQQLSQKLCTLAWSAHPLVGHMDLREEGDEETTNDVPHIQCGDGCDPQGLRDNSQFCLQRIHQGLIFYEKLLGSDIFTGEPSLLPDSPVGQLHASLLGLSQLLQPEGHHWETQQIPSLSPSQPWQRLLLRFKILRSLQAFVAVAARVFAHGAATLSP
T2 sequence (looked up) 2: T1 sequence (looked up) 2

recombinant human IL-12 [3] = target: T1, recombinant human IL-12; test: cell-based or functional assay; remark: listed apart in the source
recombinant human IL-23 [4] = target: T2, recombinant human IL-23; test: cell-based or functional assay; remark: listed apart in the source
[5] = target: T3, recombinant human IL-33 (R&D Systems 3625-IL), reduced with DTT (human, UniProt O95760 112-270, limits assumed); test: cell-based or functional assay
T3 sequence (looked up): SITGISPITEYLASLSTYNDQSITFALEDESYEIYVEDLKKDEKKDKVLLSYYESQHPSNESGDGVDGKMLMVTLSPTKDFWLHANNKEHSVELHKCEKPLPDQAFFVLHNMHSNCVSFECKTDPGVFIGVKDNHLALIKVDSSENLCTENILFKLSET

[6] = target: T3, recombinant human IL-33 (R&D Systems …); test: cell-based or functional assay; remark: listed apart in the source
[7] = target: T4, biotinylated human IL-33 wild-type (WT), reduced with 3 mM DTT (human, UniProt O95760 112-270, limits assumed, biotinylated (site not stated)); test: KinExA solution affinity, fixed antigen format, global fit
T4 sequence (looked up): T3 sequence (looked up)

recombinant human IL-33 = target: T5, recombinant human IL-33 (human, UniProt O95760 112-270, limits assumed); test: cell-based or functional assay
T5 sequence (looked up): T3 sequence (looked up)

IL-33 mm2 = target: T6, IL-33 mm2 (human, UniProt O95760 112-270, limits assumed); test: cell-based or functional assay
T6 sequence (looked up): T3 sequence (looked up) with C97S, C116S, C121S, C148S

[8] = target: T3, recombinant human IL-33 (R&D Systems …); test: cell-based or functional assay; remark: listed apart in the source
human IL-33 mm2 Cys = target: T7, human IL-33 mm2 Cys (human, UniProt O95760 112-270, limits assumed); test: cell-based or functional assay
T7 sequence (looked up): T3 sequence (looked up) with C97S, C116S, C121S, C148S

[9] = target: T8, recombinant cynomolgus monkey IL-4 (cynomolgus monkey, UniProt P79339 25-153); test: cell-based or functional assay
T8 sequence (looked up): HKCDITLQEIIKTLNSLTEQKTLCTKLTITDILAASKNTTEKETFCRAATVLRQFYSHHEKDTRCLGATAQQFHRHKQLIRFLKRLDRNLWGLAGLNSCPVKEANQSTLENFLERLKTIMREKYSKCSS

recombinant human IL-4 [10] = target: T9, recombinant human IL-4 (human, UniProt P05112 25-153); test: cell-based or functional assay
T9 sequence (looked up): T8 sequence (looked up) with K26E, I29V, L33F

recombinant human IL-4 [11] = target: T9, recombinant human IL-4; test: cell-based or functional assay; remark: listed apart in the source
recombinant human IL-4 [12] = target: T9, recombinant human IL-4; test: cell-based or functional assay; remark: listed apart in the source
recombinant human IL-13 [13] = target: T10, recombinant human IL-13 (human, UniProt P35225 35-146); test: cell-based or functional assay
T10 sequence (P35225 35-146 limits assumed): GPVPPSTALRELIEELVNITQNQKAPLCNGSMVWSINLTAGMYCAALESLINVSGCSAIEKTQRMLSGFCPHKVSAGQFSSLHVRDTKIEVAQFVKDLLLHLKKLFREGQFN

[14] = target: T8, recombinant cynomolgus monkey IL-4; test: KinExA, fixed antigen format
recombinant human IL-4 [15] = target: T9, recombinant human IL-4; test: KinExA, fixed antigen format
[16] = target: T11, recombinant cynomolgus monkey IL-13 (cynomolgus monkey, UniProt Q0PW92 19-132); test: cell-based or functional assay
T11 sequence (Q0PW92 entry or part of it limits assumed): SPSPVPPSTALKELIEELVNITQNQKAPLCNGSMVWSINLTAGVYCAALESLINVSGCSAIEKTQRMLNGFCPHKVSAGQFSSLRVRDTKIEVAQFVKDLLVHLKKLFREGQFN

recombinant human IL-13 [17] = target: T10, recombinant human IL-13; test: cell-based or functional assay; remark: listed apart in the source
[18] = target: T11, recombinant cynomolgus monkey IL-13; test: KinExA, fixed antigen format
recombinant human IL-13 [19] = target: T10, recombinant human IL-13; test: KinExA, fixed antigen format
recombinant human IL-13 [20] = target: T10, recombinant human IL-13; test: cell-based or functional assay; remark: listed apart in the source

B1: p40-0003 (antibody, human IgG1, kappa, V domains shown)
VH: EVQLVQSGAEVKKPGESLKISCKGSGYSFTTYWLGWVRQMPGKGLDWIGIMSPVDSDIRYSPSFQGQVTMSVDKSITTAYLQWNSLKASDTAMYYCARRRPGQGYFDFWGQGTLVTVSS
VL: DIQMTQSPSSLSASVGDRVTITCRASQGISSWLAWYQQKPEKAPKSLIYAASSLQSGVPSRFSGSGSGTDFTLTISSLQPEDFATYYCQQYNIYPYTFGQGTKLEIKR
For B1, the “IC50 (mean), Kit-225 assay, IL-12 induced phospho-STAT4” value (recombinant human IL-12 [1]) was 155 pM, the “IC50 (mean), Whole blood assay, IL-12 induced phospho-STAT4” value (recombinant human IL-12 [1]) was 262 pM and the “IC50 (mean), Kit-225 assay, IL-23 induced phospho-STAT3” value (recombinant human IL-23 [2]) was 850 pM. For the same binder, the “IC50 (mean), Whole blood assay, IL-23 induced phospho-STAT3” value (recombinant human IL-23 [2]) was 4.51 nM, the “IC50 (mean), Kit-225 assay, IL-12 induced phospho-STAT4” value (recombinant human IL-12 [3]) was 155 pM and the “IC50 (mean), Whole blood assay, IL-12 induced phospho-STAT4” value (recombinant human IL-12 [3]) was 262 pM. For the same binder, the “IC50 (mean), Kit-225 assay, IL-23 induced phospho-STAT3” value (recombinant human IL-23 [4]) was 850 pM and the “IC50 (mean), Whole blood assay, IL-23 induced phospho-STAT3” value (recombinant human IL-23 [4]) was 4.51 nM.

B2: IL33-0726 (antibody, human IgG1, kappa, V domains shown)
VH: EVQLVESGGGLVQPGGSLRLSCAASGFTFSSYWMYWVRQAPGKGLEWVAAITPNAGEDYYPESVKGRFTISRDNAKNSLYLQMNSLRAEDTAVYYCARGQYYYTKYSLGYWGQGTLVTVSS
VL: DIQMTQSPSSLSASVGDRVTITCRASQPIHNHLDWYQQKPGKAPKLLIYFGKNLQEGVPSRFSGSGSGTDFTLTISSLQPEDFATYYCFQYKKGWSFGGGTKVEIKR
notes: also called IL33-0726 IgG; IL13433-0726
For B2, the “IC50 [nM] versus reduced human IL-33 (R&D), IC50 (AVE)” value [5] was 0.008 nM, the “IC50 [pM] versus human reduced IL-33 (R&D), Experiment 2 (HEK-Blue SEAP)” value [6] was 6 pM and the Kd [7] was less than 0.237 pM.

B3: IL33-158LS (antibody, V domains shown)
VH: B2 VH with Q100H, K105S
VL: DIQMTQSPSSLSASVGDRVTITCKASQNINKHLDWYQQKPGKAPKLLIYFTNNLQTGVPSRFSGSGSGTDFTLTISSLQPEDFATYYCFQYNQGWTFGGGTKVEIK
With B3 the “IC50 (mean), HEK-Blue IL-33 SEAP” value (recombinant human IL-33) was 56.2 pM and the “IC50 (mean), IFNg Whole Blood (IL-12 plus IL-33 mm2-Cys)” value (IL-33 mm2) was 16.2 pM.

B4: IL33-0232 (antibody, human IgG1, kappa, V domains shown)
VH: B2 VH with Q100H, K105S
VL: B2 VL with R24K, P28N, H30N, N31K, G51T, K52N, E56T, K92N, K93Q, S96T
With B4 the “IC50 [nM] versus reduced human IL-33 (R&D), IC50 (AVE)” value [8] was 0.071 nM, the “IC50 [pM] versus human IL-33 mm2 Cys (HEK-Blue SEAP)” value (human IL-33 mm2 Cys) was 142 pM and the “IC50 [nM] versus reduced human IL-33 (R&D), IC50 (AVE)” value [5] was 0.109 nM. For the same binder, the “IC50 [pM] versus human reduced IL-33 (R&D), Experiment 1 (HEK-Blue SEAP)” value [6] was 35 pM and the Kd [7] was 3.4 pM.

B5: IL413TSLP-1024 (other)
heavy: not shown
chain 1: DIQMTQSPSSLSASVGDRVTITCKASESVDHFGWSLVHWYQQKPGKAPKLLIYRASNLESGVPSRFSGSGSGTDFTLTISSLQPEDFATYYCQQSNEDPWTFGGGTKVEIKRTVAAPSVFIFPPSDEQLKSGTASVVCLLNNFYPREAKVQWKVDNALQSGNSQESVTEQDSKDSTYSLSSTLTLSKADYEKHKVYACEVTHQGLSSPVTKSFNRGECGGGGSEVTLRESGPALVKPTQTLTLTCTFSGFSLSNFGEGLSWIRQPPGKGLEWLAHIYWDDDKRYNPSLKSRLTISKDTSRNQVVLTMTNMDPVDTATYYCARRETVFYWYFDVWGQGTTVTVSSASTKGPSVFPLAPSSKSTSGGTAALGCLVKDYFPEPVTVSWNSGALTSGVHTFPAVLQSSGLYSLSSVVTVPSSSLGTQTYICNVNHKPSNTKVDKKVEPKSCEKTHTCPPCPAPEAAGAPSVFLFPPKPKDTLMISRTPEVTCVVVDVSHEDPEVKFNWYVDGVEVHNAKTKPREEQYNSTYRVVSVLTVLHQDWLNGKEYKCKVSNKALPAPIEKTISKAKGQPREPQVYTLPPSREEMTKNQVSLTCEVKGFYPSDIAVEWESNGQPENNYKTTPPVLDSDGSFFLYSKLTVDKSRWQQGNVFSCSVLHEALHSHYTQKSLSLSPGK
light 1: SYVLTQPPSVSVAPGQTARITCGGNNLGSKSVHWYQQKPGQAPVLVVYDDKDRPSWIPERFSGSNSGNTATLTISRGEAGDEADYYCQVWDSKSDHVVFGGGTKLTVLGQPKAAPSVTLFPPSSEELQANKATLVCLISDFYPGAVTVAWKADSSPVKAGVETTTPSKQSNNKYAASSYLSLTPEQWKSHRSYSCQVTHEGSTVEKTVAPTECS
light 2: DIQMTQSPSSLSASVGDRVTITCRASQSVDEEGDSYMNWYQQKPGKAPKLLIYAASNLESGVPSRFSGSGSGTDFTLTISSLQPEDFATYYCQQSNKDPPTFGGGTKVEIKRTVAAPSVFIFPPSDEQLKSGTASVVCLLNNFYPREAKVQWKVDNALQSGNSQESVTEQDSKDSTYSLSSTLTLSKADYEKHKVYACEVTHQGLSSPVTKSFNRGEC
chain 2: EVQLVESGGGLVQPGGSLRLSCAASGFTFSSYAMSWVRQAPGKGLEWVASISSGDTTYYPDSVKGRFTISRDNAKNSLYLQMNSLRAEDTAVYYCARNEGYYFGLTLWGQGTLVTVSSASTKGPSVFPLAPSSKSTSGGTAALGCLVKDYFPEPVTVSWNSGALTSGVHTFPAVLQSSGLYSLSSVVTVPSSSLGTQTYICNVNHKPSNTKVDKKVEPKSC
notes: Trispecific Tri-Fab-Fc, dual cell, RR-EE, LS; Chains in order: SFab HC(3), DFab LC(1)-HC(2), SFab LC(3), DFab LC(2), modified Fd(1)
With B5 the “IC50 (median), CD23 expression, Human Whole Blood” value (from here on “IC50 (median) … Human Whole Blood”) [9] was 16.4 pM, the “IC50 (median), CD23 expression, Peripheral Blood Monocytes” value (“IC50 … Peripheral Blood Monocytes” for short) [9] was 10.1 pM and the “IC50 (median) … Human Whole Blood” value (recombinant human IL-4 [10]) was 23.6 pM. The “IC50 … Peripheral Blood Monocytes” value (recombinant human IL-4 [10]) was 8.27 pM, the “IC50 (median), IL-4 induced CD23 expression on human monocytes” value (recombinant human IL-4 [11]) was 8.27 pM and the “IC50 (median), IL-4 induced CD23 expression on human monocytes” value (recombinant human IL-4 [12]) was 8.27 pM. For the same binder, the “IC50 (median), IL-13 induced CD23 expression on human monocytes” value (recombinant human IL-13 [13]) was 13 pM, the Kd [14] was less than 0.661 pM and the Kd (recombinant human IL-4 [15]) was 0.323 pM. For the same binder, the “IC50 (median) … Human Whole Blood” value [16] was 41.9 pM, the “IC50 … Peripheral Blood Monocytes” value [16] was 31.6 pM and the “IC50 (median) … Human Whole Blood” value (recombinant human IL-13 [17]) was 10.2 pM. The “IC50 … Peripheral Blood Monocytes” value (recombinant human IL-13 [17]) was 13 pM, the Kd [18] was 0.581 pM and the Kd (recombinant human IL-13 [19]) was 0.266 pM. For the same binder, the “IC50 (median), IL-13 induced CD23 expression on human monocytes” value (recombinant human IL-13 [20]) was 13 pM.
